Reference: article PMC8113581 (Nature Communications, 2021)

Target: T1, SARS-CoV-2 Spike S1+S2 ECD, his Tag protein (SARS-CoV-2, Wuhan-Hu-1, UniProt P0DTC2)
T1 construct: also called full-length S protein; full-length S-his; source: bought: Sino Biological
Test: ELISA
Details: both partners purified

B1: P4A1 (antibody, V domains shown)
VH: EVQLVESGGGLIQPGGSLRLSCAASGFIVSSNYMSWVRQAPGKGLEWVSIIYSGGSTFYADSVKGRFTISRDNSKNTLYLQMNSLRVEDTAVYYCARDLQELGSLDYWGQGTLVTVSS
VL: DIQMTQSPSSVSASVGDRVTITCRASQGISSWLAWYQQKPGKAPKLLIYAASSLQSGVPSRFSGSGSGTDFTLTISSLQPEDFATYYCQEANSFPYTFGQGTKLEIK
notes: also called P4A1 (IgG1); IgG1 form P4A1
- binding result: binds
